Data on one molecule can be found in patent publication US20240376225A1 (CHILDREN S MEDICAL CENTER, published 2024).

Experiment [1] concerns the target cyno CD21 protein (cynomolgus monkey). As to the kind of experiment: SPR (Biacore). A general note: Surface plasmon resonance follows binding to a sensor surface in real time, without labels.
Experiment [2] concerns the target T1, human CD21 protein (human, UniProt P20023 21-971, limits assumed).
T1 construct: the Biacore set-up is not described; also called huCD21; CR2
T1 sequence (looked up): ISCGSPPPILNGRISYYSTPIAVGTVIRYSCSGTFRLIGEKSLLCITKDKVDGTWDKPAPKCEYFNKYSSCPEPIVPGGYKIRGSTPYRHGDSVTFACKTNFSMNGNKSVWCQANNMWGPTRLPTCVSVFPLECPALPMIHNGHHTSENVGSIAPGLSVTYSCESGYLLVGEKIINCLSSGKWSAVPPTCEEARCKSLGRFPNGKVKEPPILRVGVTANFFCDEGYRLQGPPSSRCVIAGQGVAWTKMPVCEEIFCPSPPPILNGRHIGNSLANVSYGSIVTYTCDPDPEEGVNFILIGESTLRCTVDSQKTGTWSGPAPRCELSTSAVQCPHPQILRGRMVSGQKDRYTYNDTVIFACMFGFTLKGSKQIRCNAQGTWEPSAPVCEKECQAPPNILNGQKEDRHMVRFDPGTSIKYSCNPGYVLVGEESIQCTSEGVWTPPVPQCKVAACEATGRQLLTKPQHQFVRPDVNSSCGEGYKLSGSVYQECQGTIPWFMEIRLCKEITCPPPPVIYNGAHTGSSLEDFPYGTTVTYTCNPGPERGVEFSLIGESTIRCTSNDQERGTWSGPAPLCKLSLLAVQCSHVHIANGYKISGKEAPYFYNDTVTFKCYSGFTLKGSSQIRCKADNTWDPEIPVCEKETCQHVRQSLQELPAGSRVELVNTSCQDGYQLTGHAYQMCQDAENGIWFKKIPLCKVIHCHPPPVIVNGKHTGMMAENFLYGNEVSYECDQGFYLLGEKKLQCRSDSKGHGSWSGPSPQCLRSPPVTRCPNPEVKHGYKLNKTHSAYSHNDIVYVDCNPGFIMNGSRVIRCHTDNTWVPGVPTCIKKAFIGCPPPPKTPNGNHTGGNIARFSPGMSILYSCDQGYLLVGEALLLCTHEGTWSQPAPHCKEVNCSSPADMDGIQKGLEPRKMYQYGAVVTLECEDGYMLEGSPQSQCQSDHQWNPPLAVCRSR
As to the kind of experiment: SPR (Biacore).

Experiment [3] addresses T2, human CD21 on Raji B cells or primary B cells (human, UniProt P20023 21-1033).
T2 construct: whole, on cells; also called cell-surface human CD21; Raji cells
T2 sequence (looked up): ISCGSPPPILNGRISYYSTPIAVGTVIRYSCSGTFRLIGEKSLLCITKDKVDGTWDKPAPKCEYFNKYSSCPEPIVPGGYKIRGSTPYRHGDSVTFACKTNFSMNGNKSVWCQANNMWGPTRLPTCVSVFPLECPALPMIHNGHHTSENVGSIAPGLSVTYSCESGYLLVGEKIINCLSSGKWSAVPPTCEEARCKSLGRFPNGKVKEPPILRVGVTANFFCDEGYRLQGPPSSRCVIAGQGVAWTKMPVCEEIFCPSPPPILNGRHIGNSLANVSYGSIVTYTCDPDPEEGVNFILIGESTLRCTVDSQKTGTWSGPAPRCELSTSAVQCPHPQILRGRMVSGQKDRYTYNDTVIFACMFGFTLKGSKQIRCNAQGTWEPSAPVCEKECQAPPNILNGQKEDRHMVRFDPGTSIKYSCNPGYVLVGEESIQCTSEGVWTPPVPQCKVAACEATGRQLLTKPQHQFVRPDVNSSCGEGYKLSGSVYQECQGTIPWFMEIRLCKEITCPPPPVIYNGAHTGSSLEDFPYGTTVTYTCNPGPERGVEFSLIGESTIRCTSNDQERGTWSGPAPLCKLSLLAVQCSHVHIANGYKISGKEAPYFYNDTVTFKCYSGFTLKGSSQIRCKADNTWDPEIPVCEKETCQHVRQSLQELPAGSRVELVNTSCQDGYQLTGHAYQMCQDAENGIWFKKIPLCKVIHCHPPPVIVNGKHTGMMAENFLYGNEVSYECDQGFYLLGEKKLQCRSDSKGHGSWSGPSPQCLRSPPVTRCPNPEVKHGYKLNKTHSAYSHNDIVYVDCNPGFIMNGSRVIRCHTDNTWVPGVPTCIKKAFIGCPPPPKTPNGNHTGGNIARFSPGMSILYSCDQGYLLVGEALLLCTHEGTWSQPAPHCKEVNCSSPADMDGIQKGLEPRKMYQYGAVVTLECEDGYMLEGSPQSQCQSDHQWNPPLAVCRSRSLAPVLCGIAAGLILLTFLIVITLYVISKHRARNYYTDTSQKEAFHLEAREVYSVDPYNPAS
As to the kind of experiment: Raji B cell binding, flow cytometry. As to the method: Ab15 binding to cell-surface human and cyno CD21 was determined using human Raji B cells (ATCC, Manassas, VA) and CHO cells over expressing cyno CD21. Cells expressing cyno CD21 were generated by transfecting CHO cells with a mammalian expression construct encoding full-length cyno CD21. Stable cell clones were selected on hygromycin-B, and their expression of cyno CD21 confirmed by flow cytometry.
For the Ab15 binding experiment, cells were dissociated with cell dissociation buffer (Sigma) and blocked on ice with PBS+3% bovine serum (BS)+human Fc blocker. Cells were stained on ice for 1 hr with 3-fold serially diluted Ab15 (starting from 50 nM), then washed with cold PBS. Secondary antibody (anti-human IgG-PE, 1:500 dilution, Invitrogen, cat. #H10104) was added on ice for 1 hr. Cells were washed with and resuspended in PBS, and analyzed for Ab15 binding on a BD Fortessa instrument.

The target in experiment [4] is T2, human CD21 on Raji B cells or primary B …. Put plainly: flow cytometry, competition with biotinylated human C3d on Raji B cells. Here is the method:
To measure neutralization of C3d binding to cell-surface CD21 by flow cytometry, human Raji cells and CHO-cyno CD21 cells were used. Cells were dissociated with cell dissociation buffer (Sigma) and blocked on ice with PBS+3% bovine serum albumin (BSA)+human Fc blocker. In a 96-well plate, […] were incubated for 0.5 hr on ice with 3-fold serially diluted Ab15 (starting from 100 nM), then with 4.5 ug/ml biotinylated human C3d. SA-BV451 conjugate (BD Bioscience, cat. #563529) was then added at 0.5 ug/ml for 1 hr on ice. Cells were washed again with cold PBS, resuspended in PBS and analyzed for human C3d binding on a BD Fortessa™.
(Flow cytometry measures light scatter and fluorescence of single cells or particles in a stream.)

B1: Ab15 (antibody, human IgG1, kappa, V domains shown)
VH: QVQLVQSGAEVKKPGSSVKVSCKASGGTFSSYAISWVRQAPGQGLEWMGRIIPILGIANYAQKFQGRVTITADKSTSTAYMELSSLRSEDTAVYYCAREDDSSGYYQDWGQGTLVTVSS
VL: EIVMTQSPATLSLSPGESATLSCRAGQSINSHLAWYQQKPGQSPSLLIYDASTRATGVPARFSGSGFGTEFTLTISSLQSEDFAVYFCQQYEYWYTFGQGTKLEIKR
notes: Tb-labeled in the HTRF assay; also called 36C01; SC38-36C01 (IgG1 version)
The term Kd denotes the concentration at which binding is half-saturated. A high value points to lower affinity. For orientation: EC50 means the concentration that produces a half-maximal response. Read a high EC50 as weaker potency. The term IC50 denotes the concentration that inhibits the measured activity by half. The low end stands for inhibition by little substance, the high end for a need for much substance. As for B1, the Kd was 5.77 nM in experiment [1] and 15.6 nM in experiment [2]. The molecule also came in with an EC50 in experiment [3] of 1.38 nM. The molecule further registered an IC50 in experiment [4] of 1.17 nM.
